From patent US20220098591, “STEM-LOOP COMPOSITIONS AND METHODS FOR INHIBITING VASCULAR ENDOTHELIAL GROWTN FACTOR” (DRIVE THERAPEUTICS LLC, published 2022)

Tests used:
Assay in all cases: competition; TR-FRET
Settings in all cases: tags: glycan-biotinylated for SPR/FRET/AlphaLISA; Acro BioSystems, Biolegend; chain copies: 2 (stated)
VEGF-A121 [1] = target: T1, VEGF-A121 (Homo sapiens, UniProt P15692 SEQ:1-121)
Target sequence in this assay (P15692 other isoform, or with tags, fused parts or gaps): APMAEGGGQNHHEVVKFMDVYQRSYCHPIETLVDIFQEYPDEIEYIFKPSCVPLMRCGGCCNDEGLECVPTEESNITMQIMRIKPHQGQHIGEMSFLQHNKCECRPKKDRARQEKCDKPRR

VEGF-A121 [2] = target: T1, VEGF-A121; remark: listed apart in the source
Procedure: (§1) Briefly, for competition TR-FRET, 2-fold dilutions of thermally equilibrated aptamers were made in TR-FRET Buffer (50 mM MOPS, pH 7.4, 125 mM NaCl, 5 mM KCl, 50 μM CHAPS, 0.1 mg/mL BSA, 1 mM CaCl₂, and 1 mM MgCl₂). 5 μL of aptamer or control solution was added to a 15 μL mix of glycan biotinylated […] (5 nM final), ALEXA FLUOR® 647-labeled Aptamer (30 nM final), and Streptavidin-Eu (Perkin Elmer; 2.5 nM final) in a black wall low volume 384 well plate (Greiner). For control, 5 μl of 1000-fold excess of unlabeled parent aptamer or 5 μl TR-FRET buffer alone was added to the mix of ALEXA FLUOR® 647-labeled aptamer, biotin-VEGF-A, and Streptavidin-Eu. The plate was covered with a plate seal and subsequently incubated in the dark for 1 hour at room temperature. The plate was read on a Biotek CYTATION™ 5 plate reader. Samples were excited at 330 nm and fluorescent values were collected at 665 nm. Data analysis was performed by subtracting the background value and plotting as percent inhibition, normalized to baseline in the absence of competitor. The values were fit by [Inhibitor] vs. response-Variable slope (four parameters) using GraphPad Prism Version 7.0 and then normalized to aptamer control to obtain an IC₅₀ relative to parent aptamer. Data is presented as log values of relative IC₅₀.

VEGF-A121 [3] = target: T1, VEGF-A121; remark: listed apart in the source
Procedure: as §1
Activity of each of these variants were tested using a time resolved competition TR-FRET assay, as described in Example 7, in which a labeled parent was competed with increasing concentrations of unlabeled variants for binding to VEGF-A₁₂₁.

AGGCCGAACCGCGCGGAGGGGUUUCAUUAUCCCGUUUUUCGGCUU (ssRNA, all G 2'-F; A,C,U 2'-OMe; Sp3 joins the two parts; 5' C6NH2; 3' idT) [Aptamer 137]
binding result (VEGF-A121 [1]): binds

AGGCCGAUCCGCGCGGAGGGGUUUCAUUAUCCCGUUUAUCGGCUU (ssRNA, all G 2'-F; A,C,U 2'-OMe; Sp3 joins the two parts; 5' C6NH2; 3' idT) [Aptamer 138]
binding result (VEGF-A121 [1]): binds

AGGCCGUACCGCGCGGAGGGGUUUCAUUAUCCCGUUUUACGGCUU (ssRNA, all G 2'-F; A,C,U 2'-OMe; Sp3 joins the two parts; 5' C6NH2; 3' idT) [Aptamer 139]
binding result (VEGF-A121 [1]): binds

AGGCCGUCCCGCGCGGAGGGGUUUCAUUAUCCCGUUUGACGGCUU (ssRNA, all G 2'-F; A,C,U 2'-OMe; Sp3 joins the two parts; 5' C6NH2; 3' idT) [Aptamer 142]
binding result (VEGF-A121 [1]): binds

AGGCCGACCCGCGCGGAGGGGUUUCAUUACCCCGUUUGUCGGCUU (ssRNA, all G 2'-F; A,C,U 2'-OMe; Sp3 joins the two parts; 5' C6NH2; 3' idT) [Aptamer 187]
binding result (VEGF-A121 [1]): binds

AGGCCGCACCGCGCGGAGGGGUUUCAUUAUCCCGUUUUGCGGCUU (ssRNA, all G 2'-F; A,C,U 2'-OMe; Sp3 joins the two parts; 5' C6NH2; 3' idT) [Aptamer 143]
binding result (VEGF-A121 [1]): binds

AGGCCGCUCCGCGCGGAGGGGUUUCAUUAUCCCGUUUAGCGGCUU (ssRNA, all G 2'-F; A,C,U 2'-OMe; Sp3 joins the two parts; 5' C6NH2; 3' idT) [Aptamer 144]
binding result (VEGF-A121 [1]): binds

B1: Aptamer 234 (ssRNA)
RNA: CGACCCGCGCGGAGGGGUUUCAUUAUCCCGUUUGUCG
modifications: G 2'-F except 2'-OMe-G as X in CXAC-Sp3-CCGCGCGGAGGGXUUUCAUUAUCCCGUUUXUCX; A,C,U 2'-OMe; Sp3 joins the two parts; 5' C6NH2; 3' idT
binding result (VEGF-A121 [1]): binds

B2: Aptamer 285 (ssRNA)
RNA: CGACCCGCGCGGAGGGGUUUCAUAAUCCCGUUUGUCG
modifications: G 2'-F except 2'-OMe-G as X in CXAC-Sp3-CCGCGCGGAGGGXUUUCAUAAUCCCGUUUXUCX; A,C,U 2'-OMe; Sp3 joins the two parts; 5' C6NH2; 3' idT
binding signal (VEGF-A121 [2]): ~10 fold better IC50 vs Aptamer 141

AGGCCGCCUCCGCGCGGAGGGGUUCAUUUCCCGUUUGGCGGCUU (ssRNA, all G 2'-F; A,C,U 2'-OMe; 5' C6NH2; 3' idT) [Aptamer 108]
binding signal (VEGF-A121 [3]): > 100 fold worse IC50 vs Aptamer 26

AGGCCGCAUCCGCGCGGAGGGGUUUCAUUAUCCCGUUUUGCGGCUU (ssRNA, all G 2'-F; A,C,U 2'-OMe; 5' C6NH2; 3' idT) [Aptamer 122]
binding result (VEGF-A121 [3]): binds

AGGCCGCCGCCGCGCGGAGGGGUUUCAUUAUCCCGUUUGGCGGCUU (ssRNA, all G 2'-F; A,C,U 2'-OMe; 5' C6NH2; 3' idT) [Aptamer 148]
binding result (VEGF-A121 [3]): binds

AGGCCGCCUCCGCGCGGAUGGGUUUCAUUAUCCAGUUUGGCGGCUU (ssRNA, all G 2'-F; A,C,U 2'-OMe; 5' C6NH2; 3' idT) [Aptamer 113]
binding signal (VEGF-A121 [3]): > 100 fold worse IC50 vs Aptamer 26

AGGCCGCCUCCGCGCGGAGGAGUUUCAUUACUCCGUUUGGCGGCUU (ssRNA, all G 2'-F; A,C,U 2'-OMe; 5' C6NH2; 3' idT) [Aptamer 131]
binding signal (VEGF-A121 [3]): > 100 fold worse IC50 vs Aptamer 26

AGGCCGCCUCCGCGCGGCGGGGUUUCAUUAUCCCGUUUGGCGGCUU (ssRNA, all G 2'-F; A,C,U 2'-OMe; 5' C6NH2; 3' idT) [Aptamer 161]
binding signal (VEGF-A121 [3]): > 100 fold worse IC50 vs Aptamer 26

AGGCCGCCUCCGCGCGGAGGCGUUUCAUUACGCCGUUUGGCGGCUU (ssRNA, all G 2'-F; A,C,U 2'-OMe; 5' C6NH2; 3' idT) [Aptamer 132]
binding signal (VEGF-A121 [3]): > 100 fold worse IC50 vs Aptamer 26

AGGCCGCCUCCGCGUGGAGGGGUUUCAUUAUCCCGUUUGGCGGCUU (ssRNA, all G 2'-F; A,C,U 2'-OMe; 5' C6NH2; 3' idT) [Aptamer 160]
binding signal (VEGF-A121 [3]): > 100 fold worse IC50 vs Aptamer 26

AGGCCGCCUCCGCCCGGAGGGGUUUCAUUAUCCCGUUUGGCGGCUU (ssRNA, all G 2'-F; A,C,U 2'-OMe; 5' C6NH2; 3' idT) [Aptamer 156]
binding signal (VEGF-A121 [3]): > 100 fold worse IC50 vs Aptamer 26

AGGCCGCUUCCGCGCGGAGGGGUUUCAUUAUCCCGUUUAGCGGCUU (ssRNA, all G 2'-F; A,C,U 2'-OMe; 5' C6NH2; 3' idT) [Aptamer 123]
binding result (VEGF-A121 [3]): binds

AGGCCGCCUCCCCGCGGAGGGGUUUCAUUAUCCCGUUUGGCGGCUU (ssRNA, all G 2'-F; A,C,U 2'-OMe; 5' C6NH2; 3' idT) [Aptamer 150]
binding signal (VEGF-A121 [3]): > 100 fold worse IC50 vs Aptamer 26

AGGCCGCCUCCGCGGGGAGGGGUUUCAUUAUCCCGUUUGGCGGCUU (ssRNA, all G 2'-F; A,C,U 2'-OMe; 5' C6NH2; 3' idT) [Aptamer 159]
binding signal (VEGF-A121 [3]): > 100 fold worse IC50 vs Aptamer 26

AGGCCGCCUCCGCGCGGAGGGGUUUCAUUAUCCCCUUUGGCGGCUU (ssRNA, all G 2'-F; A,C,U 2'-OMe; 5' C6NH2; 3' idT) [Aptamer 163]
binding signal (VEGF-A121 [3]): > 100 fold worse IC50 vs Aptamer 26

AGGCCGCCACCGCGCGGAGGGGUUUCAUUAUCCCGUUUGGCGGCUU (ssRNA, all G 2'-F; A,C,U 2'-OMe; 5' C6NH2; 3' idT) [Aptamer 146]
binding signal (VEGF-A121 [3]): ~3 fold better IC50 vs Aptamer 26

AGGCCGCCUCCGCGAGGAGGGGUUUCAUUAUCCCGUUUGGCGGCUU (ssRNA, all G 2'-F; A,C,U 2'-OMe; 5' C6NH2; 3' idT) [Aptamer 158]
binding signal (VEGF-A121 [3]): > 100 fold worse IC50 vs Aptamer 26

AGGCCGCCUCCGCGCGGAGGGGUUUCAUUAUCCCUUUUGGCGGCUU (ssRNA, all G 2'-F; A,C,U 2'-OMe; 5' C6NH2; 3' idT) [Aptamer 164]
binding signal (VEGF-A121 [3]): > 100 fold worse IC50 vs Aptamer 26

AGGCCGCCUCCGCGCGGAGGUGUUUCAUUACACCGUUUGGCGGCUU (ssRNA, all G 2'-F; A,C,U 2'-OMe; 5' C6NH2; 3' idT) [Aptamer 130]
binding signal (VEGF-A121 [3]): > 100 fold worse IC50 vs Aptamer 26

AGGCCGCCUCCGCGCGGAGGGGUUUCAUUAUCCCGCUUGGCGGCUU (ssRNA, all G 2'-F; A,C,U 2'-OMe; 5' C6NH2; 3' idT) [Aptamer 166]
binding result (VEGF-A121 [3]): binds

AGGCCGCCUCCGCUCGGAGGGGUUUCAUUAUCCCGUUUGGCGGCUU (ssRNA, all G 2'-F; A,C,U 2'-OMe; 5' C6NH2; 3' idT) [Aptamer 157]
binding signal (VEGF-A121 [3]): > 100 fold worse IC50 vs Aptamer 26

AGGCCGCCUCCGCGCGGAGGGGUUUCAUUAUCCCAUUUGGCGGCUU (ssRNA, all G 2'-F; A,C,U 2'-OMe; 5' C6NH2; 3' idT) [Aptamer 162]
binding signal (VEGF-A121 [3]): > 100 fold worse IC50 vs Aptamer 26

AGGCCGCCUCCGCGCGGACGGGUUUCAUUAUCCGGUUUGGCGGCUU (ssRNA, all G 2'-F; A,C,U 2'-OMe; 5' C6NH2; 3' idT) [Aptamer 114]
binding signal (VEGF-A121 [3]): > 100 fold worse IC50 vs Aptamer 26

AGGCCGCCUCCGCGCGGAGCGGUUUCAUUAUCGCGUUUGGCGGCUU (ssRNA, all G 2'-F; A,C,U 2'-OMe; 5' C6NH2; 3' idT) [Aptamer 117]
binding signal (VEGF-A121 [3]): > 100 fold worse IC50 vs Aptamer 26

AGGCCGCCUCCGCACGGAGGGGUUUCAUUAUCCCGUUUGGCGGCUU (ssRNA, all G 2'-F; A,C,U 2'-OMe; 5' C6NH2; 3' idT) [Aptamer 155]
binding signal (VEGF-A121 [3]): > 100 fold worse IC50 vs Aptamer 26

AGGCCGCCUCAGCGCUGAGGGGUUUCAUUAUCCCGUUUGGCGGCUU (ssRNA, all G 2'-F; A,C,U 2'-OMe; 5' C6NH2; 3' idT) [Aptamer 178]
binding result (VEGF-A121 [3]): binds

AGGCCGCCUCCGCGCGGAGUGGUUUCAUUAUCACGUUUGGCGGCUU (ssRNA, all G 2'-F; A,C,U 2'-OMe; 5' C6NH2; 3' idT) [Aptamer 116]
binding signal (VEGF-A121 [3]): > 100 fold worse IC50 vs Aptamer 26

AGGCCGCCUCCGCGCGGAGGGCUUUCAUUAGCCCGUUUGGCGGCUU (ssRNA, all G 2'-F; A,C,U 2'-OMe; 5' C6NH2; 3' idT) [Aptamer 127]
binding signal (VEGF-A121 [3]): > 100 fold worse IC50 vs Aptamer 26

AGGCCGCCUCCGCGCGGAAGGGUUUCAUUAUCCUGUUUGGCGGCUU (ssRNA, all G 2'-F; A,C,U 2'-OMe; 5' C6NH2; 3' idT) [Aptamer 112]
binding signal (VEGF-A121 [3]): > 100 fold worse IC50 vs Aptamer 26

AGGCCGUCUCCGCGCGGAGGGGUUUCAUUAUCCCGUUUGACGGCUU (ssRNA, all G 2'-F; A,C,U 2'-OMe; 5' C6NH2; 3' idT) [Aptamer 126]
binding result (VEGF-A121 [3]): binds

AGGCCGACUCCGCGCGGAGGGGUUUCAUUAUCCCGUUUGUCGGCUU (ssRNA, all G 2'-F; A,C,U 2'-OMe; 5' C6NH2; 3' idT) [Aptamer 125]
binding result (VEGF-A121 [3]): binds

AGGCCGCCUCCACGCGGAGGGGUUUCAUUAUCCCGUUUGGCGGCUU (ssRNA, all G 2'-F; A,C,U 2'-OMe; 5' C6NH2; 3' idT) [Aptamer 149]
binding signal (VEGF-A121 [3]): > 100 fold worse IC50 vs Aptamer 26

AGGCCGCCUCCGCGCGGAGGGGUUCAUUAUCCCGUUUGGCGGCUU (ssRNA, all G 2'-F; A,C,U 2'-OMe; Sp3 joins the two parts; 5' C6NH2; 3' idT) [Aptamer 63]
binding result (VEGF-A121 [2]): binds

AGGCCGCCUCCGCGCGGAGGGGUUUCUUAUCCCGUUUGGCGGCUU (ssRNA, all G 2'-F; A,C,U 2'-OMe; Sp3 joins the two parts; 5' C6NH2; 3' idT) [Aptamer 65]
binding result (VEGF-A121 [2]): binds

AGGCCGCCUCCGCGCGGAGGUCUUUCAUUAGACCGUUUGGCGGCUU (ssRNA, all G 2'-F; A,C,U 2'-OMe; 5' C6NH2; 3' idT) [Aptamer 129]
binding signal (VEGF-A121 [3]): > 100 fold worse IC50 vs Aptamer 26

B3: Aptamer 276 (ssRNA)
RNA: ACCCGCGCGGAGGGGUUUCAUUAUCCCGUUUGU
modifications: G 2'-F except 2'-OMe-G as X in AC-Sp3-CCGCGCGGAGGGXUUUCAUUAUCCCGUUUGU; A,C,U 2'-OMe; Sp3 joins the two parts; 5' C6NH2; 3' idT
binding signal (VEGF-A121 [2]): > 100 fold worse IC50 vs Aptamer 141
